{
  "source": "the DeepSol protein solubility set",
  "data": [
    {"assay": "soluble on expression in E. coli; label from the status in PepcDB or PDB records", "values": [
      {"sequence": "AHHHHHHGSAGVRLVDVWKVFGEVTAVRELSLEVKDGEFMILLGPSGCGKTTTLRMIAGLEEPSRGQIYIGDRLVADPEKGIFVPPKDRDIAMVFQSYALYPHMTVYDNIAFPLKLRKVPRQEIDQRVREVAELLGLTELLNRKPRELSGGQRQRVALGRAIVRKPQVFLMDEPLSNLDAKLRVRMRAELKKLQRQLGVTTIYVTHDQVEAMTMGDRIAVMNGGVLQQVGSPDEVYDKPANTFVAGFIGSPPMNFLDAIVTEDGFVDFGEFRLKLLPDQFEVLGELGYVGREVIFGIRPEDLYDAMFARVRVPGENLVRAVVEIVENLGSERIVHLRVGGVTFVGAFRSESRVREGVEVDVVFDMKKIHIFDKTTGKAIF", "soluble on expression in E. coli": "soluble"},
      {"sequence": "MLGSPVAGAQVRVWQLDLDGQRKGREPLREAVTDDRGRFRIEMGAAHGNLLVESAGGETRELWSEEPLGLDPDVPLEAIIPLYIPVQHREIVVSPFTSVAAALVERRPVEPGRFHEAMQGVHALLGGHLGGIDILDAPVTPIDEPATQLTPGVRHGLLLGALSMLAGRMAEETGASVRGLNTMMLTAALREDARDESGLLDGVGPEGAIALGFCVDPPSGADTPLCRLSAQTLRQDLAETLAFHLLGSAQDGTGLSFGDGVVLANEVAQGTETALFGNVQPGNVGDERAPVITPLASPYYEESEDAIAFEDDLTPVHVRSEAARIDLSEVFENDCDREIHKHVDVLGAGDANPLRWRFAVKDDLAGFDVEDLLVQLRVPGVLAARPLAVTSVELPEGETAPGRVFEVFARERDAEELARVEGRYNIEIAATDRLGNTSPVLRGCWRHVPRAAPLWAGSFNAASGPGSFDERRLESNNLAPVLRGDQAPVLARLEVQNNTDEDVFLTLRADDIVGRYSATWTRSRVLLSEEEGMSDCLETGECFSAPPPDVVDEIIGLQPIPDSLVTLRVFDLATGVTPKCPNCRPNEVQIAAGGHFEVQAVVSNLAFLVPPSVNRTQIQEIQVGPIGAQVQLTGVDRRGYVHCEDTVPGSSLCRVRLSYQLFHALARATLQVDSLTISAVSSPLSTLAPRSPQPPLEGDNFTFSLPVSTAVTWTTEDASIPVSQ", "soluble on expression in E. coli": "not soluble"},
      {"sequence": "MALKTAVHEKIMNDVVLAVKKNAEWKVLIVDQLSMRMVSACCKMHEIMSEGITLVEDINRRREPLPLLEAVYLITPTEESVKCLMADFQNPDNPQYRGAHIFFTEACPEELFKELCKSTTARFIKTLKEINIAFLPYESQIFSLDSPDTFQVYYNPSRAQGGIPNKERCAEQIATLCATLGEYPSVRYRSDFDENASFAQLVQQKLDAYRADDPTMGEGPQKDRSQLLILDRGFDPISPLLHELTFQAMAYDLLPIENDVYKYVNTGGNEVPEKEVLLDEKDDLWVEMRHQHIAVVSQNVTKKLKQFADEKRMGTAADKAGIKDLSQMLKKMPQYQKELSKYSTHLHLAEDCMKQYQQHVDKLCKVEQDLAMGTDADGEKIRDHMRNIVPILLDQKISAYDKIRIILLYIIHKGGISEENLAKLVQHAHIPAEEKWIINDMQNLGVPIIQDGGRRKIPQPYHTHNRKERQADHTYQMSRWTPYMKDIMEAAVEDKLDTRHYPFLNGGGPRPSCQQPVSVRYGHWHKDKGQASYKSGPRLIIFVVGGISYSEMRSAYEVTQTAKNNWEVILGSTHILTPEGLLRDLRKISNP", "soluble on expression in E. coli": "soluble"},
      {"sequence": "MGSDKIHHHHHHQEAKGSADETKVEVQYLDPRDPFEGFNRAMWDFNYLYLDKYILKPVAHGYNDYLPLPVKDGVHNFTTNFDEPSSLVNNILQGKWSWAANAGGRFTVNTSLGILGIFDVAQMMGMERKQDDFSEVLGFYGVPNGPYFMAPFFGPFVTREIASDWVDGLYFPLSELTMWQSALKWGMKSLHNRAEAIDRERLLDNALDPYAFVKDAYFQHVDYKVYDGNVPTTQEDDELLDEFMEELE", "soluble on expression in E. coli": "not soluble"},
      {"sequence": "MSLKKIQFFDTTLRDGEQTPGVNFDVKEKIQIALQLEKLGIDVIEAGFPISSPGDFECVKAIAKAIKHCSVTGLARCVEGDIDRAEEALKDAVSPQIHIFLATSDVHMEYKLKMSRAEVLASIKHHISYARQKFDVVQFSPEDATRSDRAFLIEAVQTAIDAGATVINIPDTVGYTNPTEFGQLFQDLRREIKQFDDIIFASHCHDDLGMATANALAAIENGARRVEGTINGIGERAGNTALEEVAVALHIRKDFYQAETNIVLNQFKNSSDLISRLSGMPVPRNKAVIGGNAYAHESGIHQDGVLKNPDTYEIITPALVGVDKNSLPLGKLSGKHAFNTRMEEMGYTLTEQEQKDAFKRFKQLADAKKEVTEEDLHALILGQSSESADDFELKHLQVQYVTGGVQGAIVRIEERDGALVEDAATGSGSIEAIYNTINRLMKQDIELTDYRIQAITAGQDAQAEVHVVIKNDKGAVFHGIGIDFDVLTASAKAYLQASGKSKTASKQADFEEVKEGHHHHHH", "soluble on expression in E. coli": "not soluble"},
      {"sequence": "MKKIHPSAVIEEGAQLGDDVVIEAYAYVSKDAKIGNNVVIKQGARILSDTTIGDHSRVFSYAIVGDIPQDISYKEEQKSGVVIGKNATIREFATINSGTAKGDGFTRIGDNAFIMAYCHIAHDCLLGNNIILANNATLAGHVELGDFTVVGGLTPIHQFVKVGEGCMIAGASALSQDIVPFCLAEGNRASIRSLNLVGIRRRFDKDEVDRLSRAFKTLFRQGDLKENAKNLLENQESENVKKMCHFILETKRGIPVYRGKNNA", "soluble on expression in E. coli": "soluble"},
      {"sequence": "MSDTANTAVEVDEQVIEKKLDDLSIGKKRSPSKDDTSKHRLPAAERIRIWEEEQKAKIVLTAGLQGKVKWYSVLRRYGFISRSDGEKDVFVHQTAISKSDTEKFYLRTLADEEEVLFDLVDGKNGPEAANVTGPAGVNVSGSKYRHQLLSRFRKNRKPKIVVGEDFDSKETEKLVEAPAVAMEKKKQRKQRKNKNRKQKDQKGAGDAADSSATTESLGTSSETASPDSKSCTKIISEEAGLSKIDRCDSALDDAGLGAQLIDAQI", "soluble on expression in E. coli": "soluble"},
      {"sequence": "MSSVPKNKDELELAINSIFPKLMVDYRSIPESKARKVGVEGNVKGTFISVSDTVAYLIGWGKLVLKWHRLKSQNQHVDFPETGYKWNQLGLLAESFHEEYRDWKYSDLLVELEFTINEILLLISSLSDHELYGVAWYEQWTLGRMIQFNTSSPMKNMRTKVRRFNREFTLEHHHHHH", "soluble on expression in E. coli": "not soluble"},
      {"sequence": "CIPLWGTVSIQGNRSEMEDAFAVSPHFLKLPIKMLMGDHEGMSPSLTHLTGHFFGVYDGHGGHKVADYCRDRLHFALAEEIERIKDELCKRNTGEGRQVQWDKVFTSCFLTVDGEIEGKIGRAVVGSSDKVLEAVASETVGSTAVVALVCSSHIVVSNCGDSRAVLFRGKEAMPLSVDHKPDREDEYARIENAGGKVIQWQGARVFGVLAMSRSIGDRYLKPYVIPEPEVTFMPRSREDECLILASDGLWDVMNNQEVCEIARRRILMWHKKNGAPPLAERGKGIDPACQAAADYLSMLALQKGSKDNISIIVIDLKAQRK", "soluble on expression in E. coli": "soluble"},
      {"sequence": "MVPHDKDKDNPSELIRGKDVAAFGLWSLPSFDEPRDEPAVAAPQVPAVAEPAPAPPAVEEVELETVKPPTLEEIEAIRQDAYNEGFATGERDGFHAGQLKARQEAEEALKERLQSLERLMTQLLEPIAEQDALIEQGMVNLVNHVARQVIQRELHMDSSHVRQVLREALKLLPMGAANIRIHVNPQDFERVKALRERHEESWRILEDDSLLPGGCRIETEHSRIDATIETRLAQAVKQLFEQQREQATHPLASDIRIDLDAPGDVDAP", "soluble on expression in E. coli": "not soluble"},
      {"sequence": "MGSDKIHHHHHHMVVNMFEDIDTFEEAFNKLLREVLEFDLQNPFKDAKKVLCIEPHPDDCVIGMGGTIKKLSDMGVEVIYVCMTDGYMGTTDESLSGHELAAIRRKEEEESARLLGVKKIYWLNYRDTELPYSREVRKDLTKILRKEQPDGVFAPDPWLPYESHPDHRRTGFLAIESVAFSQLPNFSNTDLDIGLNPYNSGSFIALYYTHKPNYIVDITDLMELKLKAIRVHRSQFPDDIWEKWEPFLRTIAMFYGEKIGVRYGEGFRIMPGLFYHITPFTDLI", "soluble on expression in E. coli": "not soluble"},
      {"sequence": "MKFIHLTDIHLMPPGQSVSGSDPIEKLSKVFEDIATWHSDAEFCVVSGDLADLGDRESYEWLRQRLAHFPVPVFLMLGNHDVRETFISVFPDHPRDANGFIQHAHTAGGARFLFLDTLTGGPDIHDGELCNDRLAWFAAELERAGDMPVYVFLHHPPFDIAIPYVDEIKLRQPDAFHAALQAGRNIRHIFYGHVHRTTYVNWRGYPFTSLPSTNHQVPLIPEREGQEHSAEPLAYGVATIEGDQFTLHVDHYLGK", "soluble on expression in E. coli": "not soluble"},
      {"sequence": "MSELSQLSPQPLWDIFAKICSIPHPSYHEEALAAHILEWAKEKGIYAERDQVGNILLRKAATAGMENRKPVVLQAHLDMVPQKNNDTVHDFTTDPIQPYVDGEWLKARGTTLGADNGIGMASALAVLADPSVEHGPLEVLLTMTEEAGMDGAFGLQPNWLQGEILINTDSEEEGEIYMGCAGGIDFITRLPLVREVPPAGYQTLKLTIKGLKGGHSGGDIHLGLGNANKLLARFLFEQAEALDIRILDLNGGTLRNAIPREAFATLSLPAANVEQLKTLSQDYLAVLKNELSAVEKNLTVLVEANDSNEHPLTQDSRDRLLGLLNATPNGVIRMSDDVKGVVETSLNLGVVTMEDDHAEIICLIRSLIDSGKDAVVGTLTALGQLAGAKTSPKGGYPGWQPDAHSPVMALVRETYQKQFNKTPNIMVIHAGLECGLFKKPYPDMDMVSIGPTITGPHSPDEQVHIGSVDLYWKLLTELLKAIPPRALEHHHHHH", "soluble on expression in E. coli": "soluble"},
      {"sequence": "MNTMLNPHYQQIWQTVQLIPQGKVACYGQIADLAGLPGRARLVGKSLGKVPKDGWRGQRVPWFRVINSQGKISFPPGSENFDKQKHHLQDEQVVVIGSRIKLKEFQWKPDLSELLFSLEFLEHHHHHH", "soluble on expression in E. coli": "not soluble"},
      {"sequence": "KKGYEVLRDPHLNKGMAFTLEERQQLNIHGLLPPCFLGQDAQVYSILKNFERLTSDLDRYILLMSLQDRNEKLFYKVLTSDIERFMPIVYTPTVGLACQHYGLAFRRPRGLFITIHDRGHIATMLQSWPESVIKAIVVTDGERILGLGDLGCYGMGIPVGKLALYTACGGVKPHQCLPVMLDVGTDNETLLKDPLYIGLRHKRIRGQAYDDLLDEFMEAVTSRYGMNCLIQFEDFANANAFRLLHKYRNKYCTFNDDIQGTASVAVAGLLAALRITKNRLSDHTVLFQGAGEAALGIANLIVMAMQKEGVSKEEAIKRIWMVDSKGLIVKGRASLTPEKEHFAHEHCEMKNLEDIVKDIKPTVLIGVAAIGGAFTQQILQDMAAFNKRPIIFALSNPTSKAECTAEQLYKYTEGRGIFASGSPFDPVTLPSGQTLYPGQGNNSYVFPGVALGVISCGLKHIGDDVFLTTAEVIAQEVSEENLQEGRLYPPLVTIQQVSLKIAVRIAKEAYRNNTASTYPQPEDLEAFIRSQVYSTDYNCFVADSYTWPEEAMKVK", "soluble on expression in E. coli": "soluble"},
      {"sequence": "MSNDDNVELTDGFHVLIDALKMNDIDTMYGVVGIPITNLARMWQDDGQRFYSFRHEQHAGYAASIAGYIEGKPGVCLTVSAPGFLNGVTSLAHATTNCFPMILLSGSSEREIVDLQQGDYEEMDQMNVARPHCKASFRINSIKDIPIGIARAVRTAVSGRPGGVYVDLPAKLFGQTISVEEANKLLFKPIDPAPAQIPAEDAIARAADLIKNAKRPVIMLGKGAAYAQCDDEIRALVEETGIPFLPMGMAKGLLPDNHPQSAAATRAFALAQCDVCVLIGARLNWLMQHGKGKTWGDELKKYVQIDIQANEMDSNQPIAAPVVGDIKSAVSLLRKALKGAPKADAEWTGALKAKVDGNKAKLAGKMTAETPSGMMNYSNSLGVVRDFMLANPDISLVNEGANALDNTRMIVDMLKPRKRLDSGTWGVMGIGMGYCVAAAAVTGKPVIAVEGDSAFGFSGMELETICRYNLPVTVIIMNNGGIYKGNEADPQPGVISCTRLTRGRYDMMMEAFGGKGYVANTPAELKAALEEAVASGKPCLINAMIDPDAGVESGRIKSLNVVSKVGKK", "soluble on expression in E. coli": "soluble"},
      {"sequence": "MGSDKIHHHHHHMKKLNLQCDLFNNNNLNFSDKGPLQDVFIDKKIIKEWQAKIITHQSPIFKSGHIDVNQYSLFESSSDELNASFNPIELTPLPLSFWRWPKAMHEGPAVYFVMDEIIDSGENIILYIGETISAEKRWKGEHDCKDYISSYSDSLHKANVKAKLSIRFWLDVPTKTKERRKLEQKLIQAWLPPFNKETREIWATPFTSQIN", "soluble on expression in E. coli": "not soluble"}
    ]}
  ]
}
